Source: patent US20120082667A1 (IMMUNAS PHARMA, published 2012)

Tests used:
[1] = target: T1, A beta monomer prepared from synthetic A beta1-40 (TFA form), 0.1 mg/ml in PBS (UniProt P05067 672-711); assay: competitive ELISA: antibody pre-incubated with soluble A beta1-40 monomer (inhibitor, varied), then binding to immobilised A beta1-40 oligomer read as OD450
T1 construct: domain: A beta1-40; also called A beta1-40 monomer; A beta40 monomer

[2] = target: T2, synthesized A beta1-42 (UniProt P05067 672-713); assay: dot blot: peptide spotted on nitrocellulose (0.1 micro g/dot), hybridoma culture supernatant, HRP anti-mouse IgG, ECL
T2 construct: domain: A beta1-42; spotted in the dot blot as the second of the two types of oligomers; also called A beta42 oligomer
Description: (§1) Dot blot analysis was carried out for hybridomas that gave positive result for primary screening. […] The membrane was blocked with Tris Buffer containing 5% low-fat milk and 0.05% Tween-20, and reacted with hybridoma culture supernatants and detected with chemiluminescence kit (ECL) after reacting with HRP-conjugated anti-mouse IgG antibody.

[3] = target: T3, A beta oligomer prepared from synthetic A beta1-40 (HCl form), 0.1 mg/ml in PBS, incubated at 37 degrees C … (UniProt P05067 672-711); assay: competitive ELISA: antibody pre-incubated with soluble A beta1-40 oligomer (inhibitor, varied), then binding to immobilised A beta1-40 oligomer read as OD450
T3 construct: domain: A beta1-40; non-fibrous assembly of A beta1-40; also called A beta1-40 oligomer; A beta40 oligomer

[4] = target: T1, A beta monomer prepared from synthetic …; assay: dot blot: peptide spotted on nitrocellulose (0.1 micro g/dot), hybridoma culture supernatant, HRP anti-mouse IgG, ECL
Description: as §1

[5] = target: T3, A beta oligomer prepared from synthetic …; assay: as above
Description: as §1

[6] = target: T2, synthesized A beta1-42; assay: dot blot, synthesized A beta1-42 spotted, hybridoma supernatant
Description: as §1

Binder | binding result [1] | binding result [2] | binding result [3] | binding result [4] | binding result [5] | binding result [6]
AL-233 antibody (antibody, IgG2b, V domains shown) VH: DVQLQESGPDLVKPSQSLSLTCTVTGYSITSGYSWHWIRQFPGNKLEWMGYIHYSGSTNYNPSLKSRISITRDTSKNQFFLQLNSVTTEDTATYYCARRGYDGYYSWFAYWGQGTLVTVSA VL: SQAVVTQESALTTSPGETVTLTCRSSTGAVTTSNYANWVQEKPDHLFTGLIGGTNNRAPGVPARFSGSLIGDKAALTITGAQTEDEAIYFCALWYSNHWVFGGGTKLTVLG | binds | binds | binds | – | – | –
AL-221 antibody (antibody, IgG2b, V domains shown) VH: QVTLKESGPGILKPSQTLSLTCSFSGFSLSTSGMGVGWIRQPSGKGLEWLAHIWWDDDKYYNPSLKSQLTISKDTSRNQVFLKITSVDTADTATYYCARRSLSRDYFDYWGQGTTLTVSS VL: DVLMTQTPLSLPVSLGDQASISCRSSQSIVHSNGNTYLEWYLQKPGQSPKLLIYKVSNRFSGVPDRFSGSGSGTDFTLKISRVEAEDLGVYYCFQGSHVPLTFGAGTKLELK | – | binds | – | binds | binds | –

The next lines start with the values.

binding result [1] | binding result [2] | binding result [3] | binding result [4] | binding result [5] | binding result [6] | Binder
binds | binds | binds | – | – | – | AL-231 antibody (antibody, IgG2a, V domains shown) VH: QVTLKESGPGILKPSQTLSLTCSFSGFSLSTSGMGVGWIRQPSGKGLEWLAHIWWDDDKYYNPSLKSQLTISKDTSRNQVFLKITSVDTADTATYYCARRALNWDVFDYWGQGTTLTVSS VL: DVLMTQTPLSLPVSLGDQASISCRSSQSIVHSNGNTYLEWYLQKPGQSPKLLIYKVSNRFSGVPDRFSGSGSGTDFTLKISRVEAEDLGVYYCFQGSHVPLTFGAGTKLELK
– | – | – | – | – | binds | AL-204 antibody (antibody, V domains shown) VH: EVQLVESGGGLVKPGGSLKLSCAASGFTFSDYYMYWVRQTPEKRLEWVATISDGGSYTYYPDSVKGRFTISRDNAKNNLYLQMSSLKSEDTAMYYCARAKYYRYDGGGAYAMDYWGQGTSVTVSS VL: NIMMTQSPSSLAVSAGEKVTMSCKSSQSVLYSSNQKNYLAWYQQKPGQSPKLLIYWASTRESGVPDRFTGSGSGTDFTLTISSVQAEDLAVYYCHQYLSSYTFGGGTKLEIK
– | – | – | – | – | binds | AL-205 antibody (antibody, IgG2a, V domains shown) VH: EVKLEESGGGLVQPGGSMKLSCVASGFTFSNYWMNWVRQSPEKGLEWVAEIRLKSNNYATHYAESVKGRFTISRDDSKSSVYLQMNNLRAEDTGIYYCTRGTRVWLRREAWFAYWGQGTLVTVSA VL: not shown
